# Experimental data from article PMC10786891, “Massively parallel profiling of RNA-targeting CRISPR-Cas13d”.
# Substitutions are numbered along the chain they refer to. In names and notes the source's numbering stands.
# T1: EsCas13d, nuclease-dead (Eubacterium siraeum, UniProt B0MS50, R295A;H300A;R849A;H854A)
# T1 sequence: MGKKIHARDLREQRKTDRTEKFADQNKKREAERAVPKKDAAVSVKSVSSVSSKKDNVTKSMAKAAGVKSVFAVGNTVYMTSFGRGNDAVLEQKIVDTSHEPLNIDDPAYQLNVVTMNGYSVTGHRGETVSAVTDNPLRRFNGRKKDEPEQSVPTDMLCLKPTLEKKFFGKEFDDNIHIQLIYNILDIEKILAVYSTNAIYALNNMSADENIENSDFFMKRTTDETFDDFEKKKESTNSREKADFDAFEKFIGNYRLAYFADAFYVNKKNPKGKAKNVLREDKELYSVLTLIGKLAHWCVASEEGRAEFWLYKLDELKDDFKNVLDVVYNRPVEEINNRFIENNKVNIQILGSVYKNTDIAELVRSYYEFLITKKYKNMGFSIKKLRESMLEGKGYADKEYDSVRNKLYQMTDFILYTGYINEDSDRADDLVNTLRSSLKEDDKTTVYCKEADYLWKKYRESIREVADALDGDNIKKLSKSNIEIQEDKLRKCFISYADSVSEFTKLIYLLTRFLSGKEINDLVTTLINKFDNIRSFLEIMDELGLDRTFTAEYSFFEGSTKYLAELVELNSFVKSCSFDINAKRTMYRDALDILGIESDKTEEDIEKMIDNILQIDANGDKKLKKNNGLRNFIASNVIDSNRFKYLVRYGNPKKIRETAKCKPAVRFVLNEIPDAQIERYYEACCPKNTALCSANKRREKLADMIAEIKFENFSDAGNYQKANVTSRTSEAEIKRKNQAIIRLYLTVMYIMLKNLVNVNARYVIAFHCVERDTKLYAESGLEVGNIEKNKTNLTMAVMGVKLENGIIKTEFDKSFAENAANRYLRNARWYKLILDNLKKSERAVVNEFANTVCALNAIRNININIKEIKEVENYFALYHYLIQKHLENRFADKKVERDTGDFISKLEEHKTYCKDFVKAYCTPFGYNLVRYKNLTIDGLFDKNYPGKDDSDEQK
# B1: target 1 insU 3' of 22,insU 3' of 4 (mixed)
# RNA 1: CACCCGUGCAAAAAUGCAGGGGUCUAAAACUGAGCGGAUAACCUCUCUAUGG
# RNA 2: GGGAAUGGAUCCACAUCUACGAAUUCGUACUCAUAGAGAGGUUAUCCGCUUCACCGAGAUCGGAAGAGCACACGU
# B2: target 1 insG 3' of 22,insU 3' of 7 (mixed)
# RNA 1: B1 RNA 1
# RNA 2: B1 RNA 2 with U31G, C47U, G48C, C49G, U50C
# B3: target 1 insC 3' of 22,insG 3' of 11 (mixed)
# RNA 1: B1 RNA 1
# RNA 2: B1 RNA 2 with U31C, U43G, A44U, U45A, C46U, G48C, C49G, U50C
# B4: target 3 U2G,A12C (mixed)
# RNA 1: CACCCGUGCAAAAUUGCAGGGGUCUAAAACGACCUGAAUAUUUCAGAUCAAA
# RNA 2: GGGAAUGGAUCCACAUCUACGAAUUCGUUUUUGAUCUGACAUAUUCAGGGCUGCAGAUCGGAAGAGCACACGU
# B5: target 3 insG 3' of 11,insA 3' of 6 (mixed)
# RNA 1: B4 RNA 1
# RNA 2: GGGAAUGGAUCCACAUCUACGAAUUCGUUUUUGAUCUGAAAGUAUUCAAGGUCUGCAGAUCGGAAGAGCACACGU
# B6: target 3 insA 3' of 22,insA 3' of 14 (mixed)
# RNA 1: B4 RNA 1
# RNA 2: GGGAAUGGAUCCACAUCUACGAAUUCGUUUAUUGAUCUGAAAAUAUUCAGGUCUGCAGAUCGGAAGAGCACACGU
# B7: target 3 C6U,U7A (mixed)
# RNA 1: B4 RNA 1
# RNA 2: B4 RNA 2 with C40A, U45A, C46U, G50U
# B8: target 3 insA 3' of 14,insU 3' of 5 (mixed)
# RNA 1: B4 RNA 1
# RNA 2: B5 RNA 2 with G42A, A49U
# B9: target 3 insA 3' of 4,insU 3' of 1 (mixed)
# RNA 1: B4 RNA 1
# RNA 2: B5 RNA 2 with G42U, U43A, A44U, U46C, C47A, A48G, G51U, U52C, C53U
# B10: target 3 insC 3' of 22,insG 3' of 2 (mixed)
# RNA 1: B4 RNA 1
# RNA 2: B6 RNA 2 with A31C, A43U, U44A, A45U, U47C, C48A, A49G, G51U, U52G
# B11: target 3 U2G,A11C (mixed)
# RNA 1: B4 RNA 1
# RNA 2: B4 RNA 2 with C40A, A41C
# B12: target 3 insG 3' of 8 (mixed)
# RNA 1: B4 RNA 1
# RNA 2: GGGAAUGGAUCCACAUCUACGAAUUCGUUUUUGAUCUGAAAUAUGUCAGGUCUGCAGAUCGGAAGAGCACACGU
# B13: target 3 insA 3' of 22,insA 3' of 4 (mixed)
# RNA 1: B4 RNA 1
# RNA 2: B6 RNA 2 with A43U, U44A, A45U, U47C, C48A, A49G, G50A
# B14: target 3 U2G,G14U (mixed)
# RNA 1: B4 RNA 1
# RNA 2: B4 RNA 2 with G38U, C40A
# B15: target 3 insA 3' of 4,insA 3' of 1 (mixed)
# RNA 1: B4 RNA 1
# RNA 2: B5 RNA 2 with G42U, U43A, A44U, U46C, C47A, A48G, G51U, U52C, C53A
# B16: target 3 insA 3' of 8,insG 3' of 7 (mixed)
# RNA 1: B4 RNA 1
# RNA 2: B5 RNA 2 with G42U, U43A, A44U, U45A, C47G, A48C
# B17: target 3 insA 3' of 4,insG 3' of 1 (mixed)
# RNA 1: B4 RNA 1
# RNA 2: B5 RNA 2 with G42U, U43A, A44U, U46C, C47A, A48G, G51U, U52C, C53G
# B18: target 3 del1,del5 (mixed)
# RNA 1: B4 RNA 1
# RNA 2: GGGAAUGGAUCCACAUCUACGAAUUCGUUUUUGAUCUGAAAUAUUCGGUUGCAGAUCGGAAGAGCACACGU
# B19: target 3 G4A,U21A (mixed)
# RNA 1: B4 RNA 1
# RNA 2: B4 RNA 2 with U31A, C40A, G48A, G50U
# B20: target 3 insG 3' of 8,insG 3' of 5 (mixed)
# RNA 1: B4 RNA 1
# RNA 2: B5 RNA 2 with G42U, U43A, A44U, U45G, A49G
# B21: target 3 insC 3' of 7,insG 3' of 6 (mixed)
# RNA 1: B4 RNA 1
# RNA 2: B5 RNA 2 with G42U, U43A, A44U, U46C, A48G
# B22: target 3 insU 3' of 5,insG 3' of 5 (mixed)
# RNA 1: B4 RNA 1
# RNA 2: B5 RNA 2 with G42U, U43A, A44U, U46C, C47A, A48U, A49G
# B23: target 3 C1A,U2G (mixed)
# RNA 1: B4 RNA 1
# RNA 2: B4 RNA 2 with C40A, C51A
# B24: target 3 del1 (mixed)
# RNA 1: B4 RNA 1
# RNA 2: GGGAAUGGAUCCACAUCUACGAAUUCGUUUUUGAUCUGAAAUAUUCAGGUUGCAGAUCGGAAGAGCACACGU
# B25: target 3 insA 3' of 21,insA 3' of 2 (mixed)
# RNA 1: B4 RNA 1
# RNA 2: GGGAAUGGAUCCACAUCUACGAAUUCGUUUUAUGAUCUGAAAUAUUCAGGUACUGCAGAUCGGAAGAGCACACGU
# B26: target 3 G3A,A5U (mixed)
# RNA 1: B4 RNA 1
# RNA 2: B4 RNA 2 with C40A, A47U, G49A, G50U
# B27: target 3 insA 3' of 10,insA 3' of 2 (mixed)
# RNA 1: B4 RNA 1
# RNA 2: B5 RNA 2 with G42U, U43A, A49G, G51U, U52A
# B28: target 3 C1G,G4A (mixed)
# RNA 1: B4 RNA 1
# RNA 2: B4 RNA 2 with C40A, G48A, G50U, C51G
# B29: target 3 insG 3' of 7,insG 3' of 5 (mixed)
# RNA 1: B4 RNA 1
# RNA 2: B5 RNA 2 with G42U, U43A, A44U, U46G, A49G
# B30: target 3 U7G,U22C (mixed)
# RNA 1: B4 RNA 1
# RNA 2: B4 RNA 2 with U30C, C40A, U45G, G50U
# B31: target 3 del8 (mixed)
# RNA 1: B4 RNA 1
# RNA 2: B24 RNA 2 with U45C, C46A, A47G, G49U, U50C
# B32: target 3 insU 3' of 22,insA 3' of 19 (mixed)
# RNA 1: B4 RNA 1
# RNA 2: B6 RNA 2 with A31U, U36A, C37U, U38C, G39U, A40G
# Biological target: T1, EsCas13d, nuclease-dead
# Experiment: crRNA (strand 1, pre-loaded); Mg2+; 40 mM Tris-HCl pH 7.5, 150 mM NaCl, 6 mM MgCl2, 1 mM DTT, 0.1% Tween-20, 0.2 mg/ml BSA; 25 C; 10 min per concentration, then washed
# Conditions: tags: His6-TwinStrep-SUMO cleaved; N-terminal SNAP kept (SNAP-Surface 488); label: 3' end held by stalled T7 RNA polymerase
row,Binder,Kd
1,B1,32 ± 5 nM
2,B2,26.5 ± 1.1 nM
3,B3,41 ± 4 nM
4,B4,23.5 ± 4 nM
5,B5,91.5 ± 22 nM
6,B6,94 ± 36 nM
7,B7,40 ± 4.25 nM
8,B8,69.5 ± 12.5 nM
9,B9,70 ± 32 nM
10,B10,59 ± 11 nM
11,B11,63 ± 25.5 nM
12,B12,52.5 ± 11.5 nM
13,B13,49 ± 10 nM
14,B14,73.5 ± 13.5 nM
15,B15,50.5 ± 23 nM
16,B16,72.5 ± 12 nM

row,Binder,Kd
1,B17,42 ± 13.5 nM
2,B18,14 ± 2.2 nM
3,B19,35.1 ± 3.15 nM
4,B20,62 ± 11 nM
5,B21,63 ± 6 nM
6,B22,4.74 ± 0.56 nM
7,B23,73.5 ± 22 nM
8,B24,27.1 ± 2.55 nM
9,B25,30.3 ± 2.6 nM
10,B26,61.5 ± 8.5 nM
11,B27,56 ± 8.5 nM
12,B28,15.9 ± 1.8 nM
13,B29,46.5 ± 7.5 nM
14,B30,65 ± 26 nM
15,B31,~114 nM
16,B32,77 ± 16 nM
